# Laboratory results: patent US20250002564A1 (HOSPITAL FOR SICK CHILDREN, published 2025)
# Changes are numbered by the printed parent chain. “And” between values parts separate entries of the source, which are not always exact repeats. Equal entries are not always repeated. Where two headings read alike, the source gives them in different places.
# T1: mouse FcRn (mouse, UniProt Q61559 22-297; P01887 21-119)
# T1 sequence (looked up) 1: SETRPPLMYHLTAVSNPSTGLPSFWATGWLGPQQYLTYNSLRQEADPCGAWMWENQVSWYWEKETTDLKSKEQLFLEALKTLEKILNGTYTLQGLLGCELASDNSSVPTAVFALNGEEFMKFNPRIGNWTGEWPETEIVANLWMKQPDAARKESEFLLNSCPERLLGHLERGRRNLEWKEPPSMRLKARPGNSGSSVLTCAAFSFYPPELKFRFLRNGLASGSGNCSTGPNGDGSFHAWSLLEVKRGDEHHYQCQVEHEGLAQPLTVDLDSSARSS
# T1 sequence (looked up) 2: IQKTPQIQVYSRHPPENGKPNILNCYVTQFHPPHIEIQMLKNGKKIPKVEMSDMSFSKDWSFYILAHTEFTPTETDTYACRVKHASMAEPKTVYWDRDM
# T2: mouse FcγRI (mouse, UniProt P26151 25-297)
# T2 sequence (looked up): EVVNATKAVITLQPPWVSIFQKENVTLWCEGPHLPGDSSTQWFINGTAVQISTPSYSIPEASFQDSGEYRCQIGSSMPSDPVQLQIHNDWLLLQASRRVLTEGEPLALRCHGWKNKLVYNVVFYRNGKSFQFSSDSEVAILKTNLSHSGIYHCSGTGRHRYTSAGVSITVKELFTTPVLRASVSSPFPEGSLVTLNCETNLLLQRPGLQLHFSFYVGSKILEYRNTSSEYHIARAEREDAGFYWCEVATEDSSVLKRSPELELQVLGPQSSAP
# B1: mAb 180 (antibody, V domains shown)
# VH: QVQLVQSGAEVKKPGSSVKVSCKASGYTFTSYAMHWVRQAPGQGLEWMGRISPRSGGTKYAQRFQGRVTITADESTSTAYMELSSLRSEDTAVYYCAREAVAGTHPQAGDFDLWGRGTLVTVSS
# VL: DIVMTQSPLSLPVTPGEPASISCRSSQSLLHSNGYNYLDWYLQKPGQSPQLLIYAASSLQSGVPDRFSGSGSGTDFTLKISRVEAEDVGVYYCQQYYSSPYTFGQGTKLEIKR
# B2: HD37 single chain IgG2a (mouse, anti-hCD19) (antibody)
# chain: DILLTQTPASLAVSLGQRATISCKASQSVDYDGDSYLNWYQQIPGQPPKLLIYDASNLVSGIPPRFSGSGSGTDFTLNIHPVEKVDAATYHCQQSTEDPWTFGGGTKLEIKRADAAPTVSIFPPSSEQLTSGGASVVCFLNNFYPKDINVKWKIDGSERQNGVLNSWTDQDSKDSTYSMSSTLTLTKDEYERHNSYTCEATHKTSTSPIVKSFNRNECGGSSGSGSGSTGTSSSGTGTSAGTTGTSASTSGSGSGGGGGSGGGGSAGGTATAGASSGSGSSGSSSSGGTGTGQVQLQQSGAELVRPGSSVKISCKASGYAFSSYWMNWVKQRPGQGLEWIGQIWPGDGDTNYNGKFKGKATLTADESSSTAYMQLSSLASEDSAVYFCARRETTTVGRYYYAMDYWGQGTSVTVSSSQSFPNVFPLVSCESPLSDKNLVAMGCLARDFLPSTISFTWNYQNNTEVIQGIRTFPTLRTGGKYLATSQVLLSPKSILEGSDEYLVCKIHYGGKNRDLHVPIPSKPCPPCKCPAPNLLGGPSVFIFPPKIKDVLMISLSPIVTCVVVDVSEDDPDVQISWFVNNVEVHTAQTQTHREDYNSTLRVVSALPIQHQDWMSGKEFKCKVNNKDLPAPIERTISKPKGSVRAPQVYVLPPPEEEMTKKQVTLTCMVTDFMPEDIYVEWTNNGKTELNYKNTEPVLDSDGSYFMYSKLRVEKKNWVERNSYSCSVVHEGLHNHHTTKSFSRTPGK
# notes: also called mIgG2a control; parental IgG
# B3: mAb 236 (antibody, V domains shown)
# VH: QVQLVQSGAEVKKPGASVKVSCKASGGTFTSYGINWVRQAPGQGLEWMGWMNPNSGNTGYAQKFQGRVTMTRDTSTSTVYMELSSLRSEDTAVYYCASRGIQLLPRGMDVWGQGTTVTVSS
# VL: not shown
# notes: also called IgG 236; Antibody 236
# B4: 4A8 IgG (antibody, V domains shown)
# VH: EVQLVESGAEVKKPGASVKVSCKVSGYTLTELSMHWVRQAPGKGLEWMGGFDPEDGETMYAQKFQGRVTMTEDTSTDTAYMELSSLRSEDTAVYYCATSTAVAGTPDLFDYYYGMDVWGQGTTVTVSS
# VL: EIVMTQSPLSSPVTLGQPASISCRSSQSLVHSDGNTYLSWLQQRPGQPPRLLIYKISNRFSGVPDRFSGSGAGTDFTLKISRVEAEDVGVYYCTQATQFPYTFGQGTKVDIK
# notes: also called IgG 4A8
# B5: mAb 254 (antibody, V domains shown)
# VH: EVQLLESGGGLVQPGGSLRLSCAASGFTFSSSAMHWVRQAPGKGLEWVSAIGTGGDTYYADSVKGRFTISRDNSKNTLYLQMNSLRAEDTAVYYCAREGDGYNFYFDYWGQGTLVTVSS
# VL: DIQMTQSPSSLSASVGDRVTITCRASQGISSYLAWYQQKPGKAPKLLIYDASSLQIGVPSRFSGSGSGTDFTLTISSLQPEDFATYYCLQSYSTPPWTFGQGTKVEIKR
# notes: also called IgG 254; Antibody 254
# B6: mAb 178 (antibody, V domains shown)
# VH: QVQLVQSGAEVKKPGASVKVSCKASGYTFTDYHMHWVRQAPGQGLEWMGWINPNSGGTNYAQKFQGRVTMTRDTSTSTVYMELSSLRSEDTAVYYCARDISSWYEITKFDPWGQGTLVTVSS
# VL: EIVMTQSPATLSVSPGERATLSCKASQSVSGTYLAWYQQKPGQAPRLLIYGASTRATGIPARFSGSGSGTEFTLTISSLQSEDFAVYYCLQTHSYPPTFGQGTKVEIKR
# notes: also called IgG 178; Antibody 178
# B7: mAb 120 (antibody, V domains shown)
# VH: QVQLVQSGAEVKKPGASVKVSCKASGYTFTSYDINWVRQAPGQGLEWMGMIDPSGGSTSYAQKFQGRVTMTRDTSTSTVYMELSSLRSEDTAVYYCAKDFGGGTRYDYWYFDLWGRGTLVTVSS
# VL: EIVMTQSPATLSVSPGERATLSCRASQSVSSRYLAWYQQKPGQAPRLLIYGASTRATGIPARFSGSGSGTEFTLTISSLQSEDFAVYYCQQYYTTPRTFGQGTRLEIKR
# notes: also called IgG 120; Antibody 120
# B8: mAb 46 (antibody, V domains shown)
# VH: EVQLLESGGGLVQPGRSLRLSCAASGFTFSSYAMSWVRQAPGKGLEWVSTIYSGGSTYYADSVKGRFTISRDNSKNTLYLQMNSLRAEDTAVYYCARGDSRDAFDIWGQGTMVTVSS
# VL: DIQMTQSPSSLSASVGDRVTITCRASQSISSWLAWYQQKPGKAPKLLIYDASNLETGVPSRFSGSGSGTDFTLTISSLQPEDFATYYCQQSYSTPFTFGPGTKVDIKR
# notes: also called IgG 46; Antibody 46
# B9: mAb 108 (antibody, V domains shown)
# VH: QVQLVQSGAEVKKPGASVKVSCKASGYIFSRYAIHWVRQAPGQGLEWMGWMNPISGNTDYAPNFQGRVTMTRDTSTSTVYMELSSLRSEDTAVYYCAKDGSQLAYLVEYFQHWGQGTLVTVSS
# VL: B8 VL with S28V, S30T, S31N, W32N, N53T, S93T, T94F, F96Y, P100Q, D105E
# B10: mAb 324 (antibody, V domains shown)
# VH: QVQLVQSGAEVKKPGASVKVSCKASGGTFNNYGISWVRQAPGQGLEWMGWMNPNSGNTGYAQKFQGRVTMTRDTSTSTVYMELSSLRSEDTAVYYCARVGDYGDYIVSPFDLWGRGTLVTVSS
# VL: B8 VL with S30T, S31T, W32Y, A34N, F96P, P100Q, D105E
# notes: also called IgG 324; Antibody 324
# B11: mAb 64 (antibody, V domains shown)
# VH: EVQLLESGGGLVQPGGSLRLSCAASGFPFSQHGMHWVRQAPGKGLEWVSAIDRSGSYIYYADSVKGRFTISRDNSKNTLYLQMNSLRAEDTAVYYCARDTYGGKVTYFDYWGQGTLVTVSS
# VL: B8 VL with S28G, W32H, S91T, F96W, P100Q, D105E
# notes: also called IgG 64; Antibody 64
# B12: mAb 52 (antibody, V domains shown)
# VH: QVQLVQSGAEVKKPGSSVKVSCKASGYTFTSYGISWVRQAPGQGLEWMGGIIPMFGTTNYAQKFQGRVTITADKSTSTAYMELSSLRSEDTAVYYCARDRGDTIDYWGQGTLVTVSS
# VL: DIQMTQSPSSLSASVGDRVTITCRASQGISNNLNWYQQKPGKAPKLLIYAASSLESGVPSRFSGSGSGTDFTLTISSLQPEDFATYYCQQGNGFPLTFGPGTKVDIKR
# notes: also called IgG 52; Antibody 52
# Columns and labels:
# [1] = target: T3, SARS-CoV-2 Spike on wild-type pseudotyped virus (PsV) (SARS-CoV-2, UniProt P0DTC2 14-1273); experiment: cell-based or functional assay
# [2] = target: T3, SARS-CoV-2 Spike on wild-type …; experiment: cell-based or functional assay; remark: listed apart in the source
# [3] = target: T1, mouse FcRn
# [4] = target: T1, mouse FcRn; experiment: pH 5.6
# [5] = target: T2, mouse FcγRI
# [6] = target: Spike of authentic SARS-CoV-2/SB2-P4-PB virus (SARS-CoV-2, UniProt P0DTC2 14-1273); experiment: cell-based or functional assay
# [7] = target: T3, SARS-CoV-2 Spike on wild-type …; experiment: cell-based or functional assay; remark: listed apart in the source
Binder,IC50 SARS-CoV2 PsV (IgG) [1],Median IC50 [2],IC50 SARS-CoV2/SB2-P4-PB (IgG) [6],also measured
B1,> 50 µg/mL,> 50 µg/mL and > 333 nM,–,–
B2,–,–,–,kon [3]: 116000 M⁻¹ s⁻¹; Kd [4]: 1.06 nM; koff [4]: 0.000123 s⁻¹; Kd [5]: 8.63 nM; koff [5]: 0.000451 s⁻¹; kon [5]: 52200 M⁻¹ s⁻¹
B3,0.057 µg/mL,0.057 µg/mL and 0.38 nM,5.5 µg/mL,–
B4,–,–,–,Median IC50 [7]: > 100 µg/mL and > 0.66 µM
B5,> 50 µg/mL,> 50 µg/mL and > 333 nM,–,–
B6,> 50 µg/mL,> 50 µg/mL and > 333 nM,–,–
B7,> 50 µg/mL,> 50 µg/mL and > 333 nM,–,–
B8,2.1 µg/mL,2.1 µg/mL and 14 nM,19 µg/mL,–
B9,> 50 µg/mL,> 50 µg/mL and > 333 nM,–,–
B10,0.78 µg/mL,0.78 µg/mL and 5.2 nM,21 µg/mL,–
B11,> 50 µg/mL,> 50 µg/mL and > 333 nM,–,–
B12,0.55 µg/mL,0.61 µg/mL and 4.1 nM,6.2 µg/mL,–
